The target of assay [1] is Atg19 C-terminus (yeast) (UniProt P35193). Briefly: SEC. (Size exclusion chromatography separates by hydrodynamic size, large species first.)
The target in assay [2] is Atg19 (wild type full-length protein) (yeast) (UniProt P35193). Description: ITC.

pKd: −log10 of the molar value.

The pKd is the negative decadic logarithm of the Kd, by convention in mol/L. A high value points to a small Kd.

In the case of “Atg8 (from UniProt P38182 1-117) (natural protein)”, in assay [1], the stoichiometry N (Atg8 molecules per 1 Atg19 C-terminus) was determined as 4.14. Also, in assay [2], the negative logarithm of the Kd (pKd) was 4.46.

These data come from publication PMC4009068.
